Results on 27 molecules are retold here after patent US20080058263A1 (published 2008).

Positions count from the first letter of the chain named.

The chains are these.
T1: VEGFR-3-Fc (UniProt P35916 25-328)
T1 construct: domain: first three Ig domains; conditioned supernatant of 293T cells; also called VEGFR-3-Fc fusion protein; not shown: Fc fragment of the pIg vector
T1 sequence (looked up): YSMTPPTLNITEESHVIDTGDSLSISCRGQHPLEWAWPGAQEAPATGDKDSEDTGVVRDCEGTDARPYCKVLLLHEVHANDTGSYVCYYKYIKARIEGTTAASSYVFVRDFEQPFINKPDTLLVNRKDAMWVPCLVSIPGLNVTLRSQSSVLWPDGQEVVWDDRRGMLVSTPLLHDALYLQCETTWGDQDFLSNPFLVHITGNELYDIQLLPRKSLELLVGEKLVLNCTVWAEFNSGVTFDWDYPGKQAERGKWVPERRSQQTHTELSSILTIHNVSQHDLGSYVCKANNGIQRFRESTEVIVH

B1: 84-7 (ligand)
chain: AHYNTEILKFMDVYQRSYCHPIETLVDIFQEFGVATNTFFKPSCVPLMRCGGCCNSEGLQCVPTEESNITMQIMRIKPHQGQHIGEMSFANHTSCRCMSKLD
B2: 13-9 (ligand)
chain: GQNHHEVVKFMDVYQRSYCHPIETLVDIFQEYPDEIEYIFKPPCVSVYRCGGCCNDEGLECVPTEESNITMQIMRITVPLSQGPKPVTISFLQHNKCECRPKKD
B3: 13-11 (ligand)
chain: B2 chain with D56S, E60Q
B4: 12-14 (ligand)
chain: GQNHHEVVKFMDVYQRSYCHPIETLVDIFQEFGVATNTFFKPPCVSVYRCGGCCNDEGLECMNTSTSYLSKTLFEITVPLSQGPKPVTISFANHTSCRCMSKLDL
B5: 13-1 (ligand)
chain: GQNHHEVVKFMDVYQRSYCHPIETLVDIFQEYPDEIEYIFKPPCVSVYRCGGCCNDEGLECVPTEESNITMQIMRIKPHQGQHIGEMSFLQHNKCECRPKKD
B6: 13-5 (ligand)
chain: B5 chain with L90A, Q91N, N93T, K94S, E96R, R98M, P99S, K101L
B7: 13-7 (ligand)
chain: B5 chain with D56S, E60Q, L90A, Q91N, N93T, K94S, E96R, R98M, P99S, K101L
B8: 14-1 (ligand)
chain: GQNHHEVVKFMDVYQRSYCHPIETLVDIFQEFGVATNTFFKPSCVPLMRCGGCCNDEGLECVPTEESNITMQIMRIKPHQGQHIGEMSFLQHNKCECRPKKD
B9: 14-3 (ligand)
chain: B8 chain with D56S, E60Q
B10: 14-7 (ligand)
chain: B1 chain with A1G, H2Q, Y3N, N4H, T5H, I7V, L8V
B11: 14-5 (ligand)
chain: B8 chain with L90A, Q91N, N93T, K94S, E96R, R98M, P99S, K101L
B12: 81-9 (ligand)
chain: AHYNTEILKFMDVYQRSYCHPIETLVDIFQEYPDEIEYIFKPSCVPLMRCGGCCNDEGLECVPTEESNITMQIMRITVPLSQGPKPVTISFLQHNKCECRPKKD
B13: 81-15 (ligand)
chain: B12 chain with D56S, E60Q, L92A, Q93N, N95T, K96S, E98R, R100M, P101S, K103L
B14: 81-13 (ligand)
chain: B12 chain with L92A, Q93N, N95T, K96S, E98R, R100M, P101S, K103L
B15: 81-11 (ligand)
chain: B12 chain with D56S, E60Q
B16: 22-13 (ligand)
chain: AHYNTEILKSIDNEWRKTQCMPREVCIDVGKEFGVATNTFFKPPCVSVYRCGGCCNDEGLECVPTEESNITMQIMRITVPLSQGPKPVTISFANHTSCRCMSKLD
B17: 22-15 (ligand)
chain: B16 chain with D57S, E61Q
B18: 23-4 (ligand)
chain: AHYNTEILKSIDNEWRKTQCMPREVCIDVGKEYPDEIEYIFKPPCVSVYRCGGCCNSEGLQCMNTSTSYLSKTLFEIKPHQGQHIGEMSFLQHNKCECRPKKD
B19: 73-8 (ligand)
chain: GQNHHEVVKSIDNEWRKTQCMPREVCIDVGKEYPDEIEYIFKPPCVSVYRCGGCCNSEGLQCMNTSTSYLSKTLFEIKPHQGQHIGEMSFANHTSCRCMSKLD
B20: 71-6 (ligand)
chain: B19 chain with P44S, S47P, V48L, Y49M, S57D, Q61E
B21: 24-6 (ligand)
chain: AHYNTEILKSIDNEWRKTQCMPREVCIDVGKEFGVATNTFFKPSCVPLMRCGGCCNDEGLECMNTSTSYLSKTLFEIKPHQGQHIGEMSFANHTSCRCMSKLD
B22: 53-8 (ligand)
chain: AHYNTEILKSIDNEWRKTQCMPIETLVDIFQEYPDEIEYIFKPPCVSVYRCGGCCNSEGLQCMNTSTSYLSKTLFEIKPHQGQHIGEMSFANHTSCRCMSKLD
B23: 53-6 (ligand)
chain: B22 chain with S57D, Q61E
B24: 23-8 (ligand)
chain: B22 chain with I23R, T25V, L26C, V27I, I29V, F30G, Q31K
B25: 73-6 (ligand)
chain: B19 chain with S57D, Q61E
B26: 51-6 (ligand)
chain: B22 chain with P44S, S47P, V48L, Y49M, S57D, Q61E
B27: 31-1 (ligand)
chain: GQNHHEVVKSIDNEWRKTQCMPIETLVDIFQEYPDEIEYIFKPSCVPLMRCGGCCNDEGLECVPTEESNITMQIMRIKPHQGQHIGEMSFLQHNKCECRPKKD

T2 sequence (P17948 27-338): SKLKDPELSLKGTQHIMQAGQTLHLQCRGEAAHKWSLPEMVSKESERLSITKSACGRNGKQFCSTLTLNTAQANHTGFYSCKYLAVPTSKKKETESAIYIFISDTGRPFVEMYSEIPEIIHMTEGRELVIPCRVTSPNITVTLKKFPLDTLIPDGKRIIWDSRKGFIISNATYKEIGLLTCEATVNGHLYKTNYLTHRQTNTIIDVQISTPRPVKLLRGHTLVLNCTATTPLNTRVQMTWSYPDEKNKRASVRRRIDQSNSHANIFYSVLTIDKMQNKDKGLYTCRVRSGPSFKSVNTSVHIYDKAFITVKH

One assay has as its target T2, VEGFR-1-Fc (UniProt P17948 27-338).
T2 construct: domain: first three Ig domains; expressed in Drosophila S2 cells, purified on Protein A sepharose; also called VEGFR-1-Fc fusion protein; not shown: Fc fragment from the Signal-pIgPlus vector
The experiment in a line: receptor-Fc IP. The method, boiled down: (§1)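 fusion protein at 400 ng/ml in an IP mix (PBS, 1.5% BSA, 0.06% Tween 20, 3 μg/ml heparin) was combined with sample supernatant at a 1:2 ratio. Bound ligand captured by immunoprecipitation with pentahistidine antibody.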
Take B1: the binding result is given as “no binding”.

In the case of B2, the binding result is listed as “binds”.

On to B3, for which the binding result is on record as “binds”.

Consider B4, for which the binding result is “no binding”.

B5: the binding result was “binds”.

B6: the binding result is “binds”.

As to B7, the binding result is “binds”.

As for B8, the binding result is “binds”.

B9: the binding result is “binds”.

With B10, the binding result is recorded as “no binding”.

In the case of B11, the binding result was “binds”.

Regarding B12, the binding result is “binds”.

Regarding B13, the binding result is listed as “binds”.

For B14, the binding result was “binds”.

Turning to B15, the binding result is “binds”.

On to B16, for which the binding result is given as “no binding”.

For B17, the binding result is listed as “no binding”.

As for B18, the binding result is listed as “no binding”.

As to B19, the binding result is “no binding”.

Regarding B20, the binding result is listed as “no binding”.

For B21, the binding result is “no binding”.

Turning to B22, the binding result is “no binding”.

As to B23, the binding result is on record as “no binding”.

In the case of B24, the binding result is listed as “no binding”.

With B25, the binding result is “no binding”.

Regarding B26, the binding result is listed as “no binding”.

As to B27, the binding result is given as “no binding”.

The target of a further assay is T3, VEGFR-2-Fc (UniProt P35968 20-322).
T3 construct: domain: first 3 Ig domains; conditioned supernatant of 293T cells; also called VEGFR-2-Fc fusion protein; not shown: Fc fragment of the pIg vector
T3 sequence (P35968 20-322): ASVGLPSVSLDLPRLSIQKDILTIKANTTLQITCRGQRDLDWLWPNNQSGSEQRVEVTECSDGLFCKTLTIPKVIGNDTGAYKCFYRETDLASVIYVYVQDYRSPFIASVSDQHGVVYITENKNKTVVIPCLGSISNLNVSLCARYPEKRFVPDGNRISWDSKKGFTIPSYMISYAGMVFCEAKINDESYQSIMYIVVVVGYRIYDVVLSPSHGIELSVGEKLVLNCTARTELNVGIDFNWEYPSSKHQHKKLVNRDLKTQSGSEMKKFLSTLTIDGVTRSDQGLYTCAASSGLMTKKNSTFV
Briefly: receptor-Fc IP. The method, boiled down: as §1
Regarding B1, the binding result is reported as “no binding”.

On to B2, for which the binding result is “no binding”.

Turning to B3, the binding result is given as “no binding”.

As for B4, the binding result is “no binding”.

B5: the binding result is on record as “binds”.

As for B6, the binding result was “binds”.

On to B7, for which the binding result is “binds”.

Regarding B8, the binding result is “no binding”.

With B9, the binding result is “binds”.

Turning to B10, the binding result is “binds”.

In the case of B11, the binding result is listed as “no binding”.

For the molecule B12, the binding result was “no binding”.

For the molecule B13, the binding result was “binds”.

B14: the binding result is reported as “no binding”.

Turning to B15, the binding result is given as “binds”.

With B16, the binding result is listed as “no binding”.

For B17, the binding result is “no binding”.

For B18, the binding result is given as “no binding”.

Consider B19, for which the binding result is reported as “no binding”.

Turning to B20, the binding result is “no binding”.

Take B21: the binding result is reported as “no binding”.

Regarding B22, the binding result was “no binding”.

As to B23, the binding result is “no binding”.

Consider B24, for which the binding result is on record as “no binding”.

Regarding B25, the binding result is listed as “no binding”.

Regarding B26, the binding result is reported as “no binding”.

Regarding B27, the binding result was “no binding”.

A further assay concerns the target T1, VEGFR-3-Fc. The experiment in a line: receptor-Fc IP. The method in brief:
as §1
Consider B1, for which the binding result was “no binding”.

For B2, the binding result is “no binding”.

For B3, the binding result is listed as “no binding”.

In the case of B4, the binding result is listed as “binds”.

B5: the binding result is given as “no binding”.

Regarding B6, the binding result is “no binding”.

Take B7: the binding result is given as “no binding”.

With B8, the binding result is “no binding”.

B9: the binding result is listed as “no binding”.

Consider B10, for which the binding result is “no binding”.

B11: the binding result was “no binding”.

For the molecule B12, the binding result is “no binding”.

Regarding B13, the binding result is “no binding”.

Turning to B14, the binding result is “no binding”.

On to B15, for which the binding result is given as “no binding”.

For the molecule B16, the binding result is listed as “no binding”.

With B17, the binding result is given as “no binding”.

Consider B18, for which the binding result is “no binding”.

For the molecule B19, the binding result was “no binding”.

As to B20, the binding result is reported as “no binding”.

Take B21: the binding result is reported as “no binding”.

As to B22, the binding result is listed as “no binding”.

Turning to B23, the binding result is given as “no binding”.

For the molecule B24, the binding result was “no binding”.

With B25, the binding result is listed as “no binding”.

Consider B26, for which the binding result is given as “no binding”.

For B27, the binding result is recorded as “no binding”.
